In patent US20220204601A1 (ADEL, published 2022):
Ends that are not written are not given here.

Assays:
Tau (Acetylation -) [1] = target: T1, Tau (Acetylation -); assay: plate assay as drawn: capture Ab 1ug/well, antigen titrated
T1 construct: also called non-Ac tau protein; non-acetylated wild type tau protein

K280-ac protein fragment [2] = target: T2, K280-ac protein fragment (human); assay: ELISA on K280-ac coated at 250 ng/well, HRP anti-human IgG
T2 construct: also called mAC
T2 peptide: VQIINK(Ac)KLDLSN
Experimental: (§1) In addition, binding of the K280-ac protein fragment prepared in Preparation Example 1 with the ADEL-Y01h (v01 to v12) antibodies prepared in Preparation Example 2 was measured by ELISA.
(§2) First, plates were treated with the K280-ac protein fragment at 250 ng/well and reaction was allowed to proceed at 4° C. overnight. The next day, washing with a washing buffer was performed three times, and then treatment with a primary antibody was performed with 8 concentrations (2 μg, 1 μg, 0.5 μg, 0.25 μg, 0.12 μg, 0.06 μg, 0.03 μg, 0.01 μg). As a secondary antibody, HRP-labeled anti-human IgG antibody was used.

K280-ac protein fragment [3] = target: T2, K280-ac protein fragment; assay: ELISA, K280-ac coated at 250 ng/well
Experimental: as §1, §2

K280-ac protein fragment [4] = target: T2, K280-ac protein fragment; assay: Octet K2 system, antibody fixed on AR2G biosensor, antigen in solution
Experimental: (§3) An affinity between the K280-ac protein fragment prepared in Preparation Example 1 and the ADEL-Y01m antibody prepared in Preparation Example 2 was measured through the Octet® K2 System (Fortebio).
(§4) The ADEL-Y01m antibody was fixed on AR2G biosensor according to the manufacturer's manual. The surface of the biosensor was hydrated with water for 10 minutes, and then activated using a mixture of 20 mM 1-ethyl-3-[3-dimethylaminopropyl] carbodiimide hydrochloride (EDC) and 10 mM N-hydroxysulfosuccinimide (s-NHS). The ADEL-Y01m antibody was fixed on the activated biosensor using 10 mM sodium acetate buffer (pH 5.0) and quenched with 1M ethanol amine (pH 8.0) for 5 minutes. The biosensor on which the ADEL-Y01m antibody is fixed was immersed in 1×PBS buffer (pH 7.4) for 60 seconds, to establish a baseline. Then, the biosensor was immersed for 60 seconds in wells containing different concentrations of the K280-ac protein fragment (antigen) or BSA-bound peptide. Thereafter, the biosensor was immersed again in 1×PBS buffer (pH 7.4) for 10 minutes so that dissociation occurs. The experimental data were evaluated by Octet Data Analysis (SW version: 9.0.0.10).

K280-ac protein fragment [5] = target: T2, K280-ac protein fragment; assay: BLI, Octet K2; antibody fixed on AR2G biosensor, K280-ac fragment in solution
Experimental: as §3, §4

[6] = target: T3, acetylated Tau K280A protein (human, UniProt P10636 2-758, acetylated in vitro with P300 enzyme and acetyl CoA; sites not stated); assay: western blot
T3 construct: Tau K280A acetylated in the same manner as the acetylated K18 fragment; also called Tau K280A (acetylated)
T3 sequence (P10636 other isoform, or with tags, fused parts or gaps K280A K280A limits assumed): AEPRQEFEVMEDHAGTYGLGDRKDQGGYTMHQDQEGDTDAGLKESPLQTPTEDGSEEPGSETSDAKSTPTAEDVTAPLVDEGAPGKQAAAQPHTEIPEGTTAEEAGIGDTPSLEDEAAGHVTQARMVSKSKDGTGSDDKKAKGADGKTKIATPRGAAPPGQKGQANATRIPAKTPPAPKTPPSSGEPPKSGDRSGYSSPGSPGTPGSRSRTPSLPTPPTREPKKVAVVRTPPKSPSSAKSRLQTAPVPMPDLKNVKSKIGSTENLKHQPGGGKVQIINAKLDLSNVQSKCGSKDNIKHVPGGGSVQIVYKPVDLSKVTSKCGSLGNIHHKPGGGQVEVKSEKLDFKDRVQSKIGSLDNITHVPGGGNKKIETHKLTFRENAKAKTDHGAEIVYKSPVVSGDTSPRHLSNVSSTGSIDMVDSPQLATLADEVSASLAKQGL
Experimental: (§5) In order to identify specific binding of the ADEL-Y01m antibody prepared in Preparation Example 2 to acetylated tau protein, the wild-type tau protein and the tau protein (Tau K280A) in which the 280th amino acid lysine is replaced with alanine were acetylated in vitro. Here, acetylation of the wild-type Tau protein and the Tau K280A protein was performed in the same manner as in the preparation method of the acetylated K18 protein fragment in Preparation Example 1. Then, an antigen-antibody specific binding reaction of the ADEL-Y01m antibody was checked through western blotting.
(§6) First, the concentrations of the wild-type Tau protein and the Tau K280A protein were measured through Bradford Assay. Each of the proteins was mixed with 4× sample buffer (60 mM Tris-HCl [pH 6.8], 2% w/v SDS, 25% v/v glycerol, 14.4 mM v/v β-mercaptoethanol, and bromophenol blue). Thereafter, each protein was electrophoresed on an SDS-PAGE gel. Then, the electrophoresed gel was separated and transferred onto a PVDF membrane (BioRad, California, USA). Treatment with a blocking buffer (0.1% v/v Tween-20 [PBST], 3% w/v BSA, or 5% v/v skim milk in PBS buffer) was performed and reaction was allowed to proceed for 1 hour. Then, treatment with an anti-acetyl-lysine antibody (anti-acetyl-lysine, Cell Signaling, 9441) or ADEL-Y01m antibody as a primary antibody was performed and reaction was allowed to proceed at 4° C. overnight. The next day, the PVDF membrane was washed three times with a washing buffer (0.1% v/v Tween-20 [PBST] in PBS buffer), and then treated with HRP-labeled anti-mouse IgG antibody (Bioxcell, BE0083). The PVDF membrane was treated with a chemiluminescent reagent (Thermo Fisher Scientific). Then, measurement and analysis were performed using x-ray film and ImageJ software (NIH, Bethesda, Md.).

Tau (Acetylation -) [7] = target: T1, Tau (Acetylation -); assay: western blot
Experimental: as §5, §6

Tau K280A protein = target: T4, Tau K280A protein (human, UniProt P10636 2-758); assay: western blot
T4 construct: Tau protein with lysine 280 replaced by alanine, not acetylated
T4 sequence (P10636 other isoform, or with tags, fused parts or gaps K280A K280A limits assumed): as above
Experimental: as §5, §6

T1 sequence (tau protein, as listed by the source): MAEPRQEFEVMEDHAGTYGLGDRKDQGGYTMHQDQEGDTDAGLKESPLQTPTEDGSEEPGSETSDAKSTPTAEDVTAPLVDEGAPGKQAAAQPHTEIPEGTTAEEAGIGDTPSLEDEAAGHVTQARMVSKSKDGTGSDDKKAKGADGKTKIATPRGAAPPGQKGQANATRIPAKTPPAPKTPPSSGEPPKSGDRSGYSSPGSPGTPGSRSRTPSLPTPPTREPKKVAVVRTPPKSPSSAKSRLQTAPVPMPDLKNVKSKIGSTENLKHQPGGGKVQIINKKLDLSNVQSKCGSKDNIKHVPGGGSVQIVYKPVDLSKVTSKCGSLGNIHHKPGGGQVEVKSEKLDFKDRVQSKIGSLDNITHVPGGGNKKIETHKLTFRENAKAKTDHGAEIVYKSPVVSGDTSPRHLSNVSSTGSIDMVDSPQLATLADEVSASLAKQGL

B1: ADEL-Y01h01_v01 antibody (antibody, V domains shown)
VH: EVQLQESGPGLVKPSQTLSLTCTVSGDSITSGYWNWIRQPPGKGLEYIGYIRYSGRTYYNPSLKSRVTISRDTSKNQFSLKLSSVTAADTAVYYCASVYFTYWGQGTLVTVSS
VL: DVVMTQSPLSLPVTLGQPASISCKSSQSLLDSDGKTYLNWFQQRPGQSPKRLISLVSKLDSGVPDRFSGSGSGTDFTLKISRVEAEDVGVYYCWQGSHFPYTFGQGTKLEIK
notes: Humanized ADEL-Y01m; It was detected with anti-human IgG; also called ADEL-Y01h v01
- binding result (Tau (Acetylation -) [1]): no binding (tested: 100.00 (unit not printed))
- Absorbance at 450nm at 0.01ug/well (K280-ac protein fragment [2]): 0.731
- Absorbance at 450nm at 0.03ug/well (K280-ac protein fragment [2]): 0.899
- Absorbance at 450nm at 0.06ug/well (K280-ac protein fragment [2]): 1.1
- Absorbance at 450nm at 0.12ug/well (K280-ac protein fragment [2]): 1.58
- Absorbance at 450nm at 0.25ug/well (K280-ac protein fragment [2]): 1.93
- Absorbance at 450nm at 0.5ug/well (K280-ac protein fragment [2]): 2.07
- Absorbance at 450nm at 1ug/well (K280-ac protein fragment [2]): 2.22
- Absorbance at 450nm at 2ug/well (K280-ac protein fragment [2]): 2.42

B2: ADEL-Y01h v07 antibody (antibody, V domains shown)
VH: EVTLKESGPTLVKPTQTLTLTCTVSGDSITSGYWNWIRQPPGKALEYLAYIRYSGRTYYNPSLKSRLTITRDTSKNQVVLTMTNMDPVDTATYYCASVYFTYWGQGTLVTVSS
VL: B1 VL
notes: Humanized antibody; It was detected with anti-human IgG; also called Y01h01v07
- binding result (K280-ac protein fragment [3]): binds

B3: ADEL-Y01m antibody (antibody, V domains shown)
VH: EVQLEESGPSLVKPSQTLSLTCSVTGDSITSGYWNWIRKFPGNKLEYMGYIRYSGRTYYNPSLKSRISITRDTSKNQFYLQLISVTTEDTATYYCASVYFTYWGQGTLVTVSS
VL: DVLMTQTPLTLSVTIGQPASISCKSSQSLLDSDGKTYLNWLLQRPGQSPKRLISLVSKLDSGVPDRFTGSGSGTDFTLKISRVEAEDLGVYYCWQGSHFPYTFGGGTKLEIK
notes: Mouse monoclonal antibody from a hybridoma; also called Y01m01; antibody produced from the #15E5 hybridoma cell line (clone #1)
- koff (K280-ac protein fragment [4]): 0.000157 s⁻¹
- kon (K280-ac protein fragment [4]): 447000 M⁻¹ s⁻¹
- Kd (K280-ac protein fragment [5]): 0.257 nM
- binding result [6]: no binding
- binding result (Tau (Acetylation -) [7]): no binding
- binding result (Tau K280A protein): no binding
